Data from patent US20120269832A1.

Tests used:
[1] = target: human CD40L protein translated from transfected CD40L mRNA (pCR2.1 CD40L WT, >100 nucleotide poly-A tail) (human) (UniProt P29965); assay: cell-based or functional assay
[2] = target: CD40, the cognate receptor molecule for CD40L, on human monocyte-derived dendritic cells (human) (UniProt P25942); assay: cell-based or functional assay
UniProt P25942, sequence (P25942 21-277): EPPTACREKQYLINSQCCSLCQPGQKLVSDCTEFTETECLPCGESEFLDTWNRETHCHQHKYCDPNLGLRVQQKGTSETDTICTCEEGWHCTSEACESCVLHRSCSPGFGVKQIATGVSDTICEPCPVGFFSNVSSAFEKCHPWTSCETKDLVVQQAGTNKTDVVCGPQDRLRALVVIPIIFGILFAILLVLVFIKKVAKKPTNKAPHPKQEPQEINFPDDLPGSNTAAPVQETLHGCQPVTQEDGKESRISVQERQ

| Substance | IL-12p70 (pg/ml), "Cocktail" matured and reactivated DCs co-cultured with HeLa/>100 polyA + IFN-γ + 24-31 [1] [pg/mL] | IL-12 p70 release from CD40L mRNA-transfected DCs cultured with IFN-γ and 10 or 50 µg/ml blocking anti-CD40L antibody [1] [%] | IL-12p70 (pg/ml), "Cocktail" matured and reactivated DCs co-cultured with HeLa/>100 polyA + IFN-γ [2] [pg/mL] | IL-12p70 (pg/ml), immature DCs co-cultured with HeLa/>100 polyA + IFN-γ [2] [pg/mL] |
| --- | --- | --- | --- | --- |
| blocking CD40L monoclonal antibody 24-31 (eBioscience) | 2.5 | 50 | – | – |
| human CD40L protein translated from transfected CD40L mRNA (pCR2.1 CD40L WT, >100 nucleotide poly-A tail) (from UniProt P29965 1-261) (ligand) | – | – | 26.3 | 372 |
